Earlier results on one substance are cited in paper PMC4153603.

pKd: −log10 of the molar value.

In one series the target is Kv1.3 (Homo sapiens) (UniProt P22001).
A further series has as its target Kv1.1 (Homo sapiens) (UniProt Q09470).
UniProt Q09470, sequence (Q09470 whole entry): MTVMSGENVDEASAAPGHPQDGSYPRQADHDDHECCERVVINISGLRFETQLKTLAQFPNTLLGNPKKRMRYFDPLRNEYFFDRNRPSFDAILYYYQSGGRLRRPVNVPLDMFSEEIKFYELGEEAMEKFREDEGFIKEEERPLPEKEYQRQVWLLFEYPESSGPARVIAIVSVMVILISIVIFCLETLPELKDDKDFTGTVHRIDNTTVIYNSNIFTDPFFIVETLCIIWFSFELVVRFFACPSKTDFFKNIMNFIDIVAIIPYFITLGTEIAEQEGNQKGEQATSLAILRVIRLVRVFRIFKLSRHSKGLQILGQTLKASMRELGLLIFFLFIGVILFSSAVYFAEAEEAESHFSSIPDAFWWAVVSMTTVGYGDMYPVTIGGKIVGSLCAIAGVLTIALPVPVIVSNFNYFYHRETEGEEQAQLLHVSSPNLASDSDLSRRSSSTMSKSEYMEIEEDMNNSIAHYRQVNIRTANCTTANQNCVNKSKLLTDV

UniProt P22001, sequence (P22001 whole entry): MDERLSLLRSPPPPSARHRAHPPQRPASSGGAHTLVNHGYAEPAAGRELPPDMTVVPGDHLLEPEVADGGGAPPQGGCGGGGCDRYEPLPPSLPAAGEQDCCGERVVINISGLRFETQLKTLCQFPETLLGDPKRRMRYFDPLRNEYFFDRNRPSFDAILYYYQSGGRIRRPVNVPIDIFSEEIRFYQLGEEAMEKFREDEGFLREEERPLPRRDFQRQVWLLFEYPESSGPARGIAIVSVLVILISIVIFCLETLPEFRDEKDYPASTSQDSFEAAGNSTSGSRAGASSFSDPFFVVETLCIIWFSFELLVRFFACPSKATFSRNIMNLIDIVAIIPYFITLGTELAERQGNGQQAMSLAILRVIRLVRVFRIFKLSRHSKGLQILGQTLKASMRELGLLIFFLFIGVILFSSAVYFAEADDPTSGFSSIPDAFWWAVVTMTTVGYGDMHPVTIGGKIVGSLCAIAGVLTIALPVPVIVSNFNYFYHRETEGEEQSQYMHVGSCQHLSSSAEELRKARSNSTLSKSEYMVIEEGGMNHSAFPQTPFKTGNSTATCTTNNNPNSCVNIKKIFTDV

Usually pKd stands for the negative decadic logarithm of the Kd, by convention in mol/L. On to ShK (from UniProt P29187), for which the pKd in the series with Kv1.3 (Homo sapiens) was 11.00; with Kv1.1 (Homo sapiens) it was 10.55.
